Data taken from article PMC8602277, “Crystal structures of the elusive Rhizobium etliL-asparaginase reveal a peculiar active site” (Nature Communications, 2021).

B1: ReAV (inducible R. etli L-asparaginase, AnsA) (Rhizobium etli CFN 42) (protein)
chain: MTPSEDFVVTDRGGIVENSHRVHAAVVDAKGRLLYALGNPTRMTLARSAAKPAQALAILETEGVAGYGFDDADIALMCASHSSEDRHIARTRAMLSKIKAEEADLRCGGHPSLSEMVNRSWIKQDFIPTAVCSNCSGKHVGMLAGARAIGAGTDGYHLPDHPMQGRVKRTVAELCDLDAGDVEWGTDGCNLPTPAFPLDRLGRIYAKLASAADGSDAGEGQSTRCAALAHIFRAMARHPEMVAGEGRYCTMLMRAFDGALVGKLGADASYAIGVRASDATRQLGTDGALGISVKIEDGNLEMLYAVVTELLERLGIGSPDVRSQLASFHHPQRVNTMGVTTGGVSFPFKLRGSKSNVDDPRLAAVAR
notes: full-length wild type, 367 residues, expressed in E. coli BL21 STAR (DE3) from pET151-D-TOPO, N-terminal His6-tag cut with TEV protease; homodimer, one Zn2+ per subunit
B2: ReAV S80A mutant (enzyme, Rhizobium etli (strain CFN 42))
chain: MTPSEDFVVTDRGGIVENSHRVHAAVVDAKGRLLYALGNPTRMTLARSAAKPAQALAILETEGVAGYGFDDADIALMCAAHSSEDRHIARTRAMLSKIKAEEADLRCGGHPSLSEMVNRSWIKQDFIPTAVCSNCSGKHVGMLAGARAIGAGTDGYHLPDHPMQGRVKRTVAELCDLDAGDVEWGTDGCNLPTPAFPLDRLGRIYAKLASAADGSDAGEGQSTRCAALAHIFRAMARHPEMVAGEGRYCTMLMRAFDGALVGKLGADASYAIGVRASDATRQLGTDGALGISVKIEDGNLEMLYAVVTELLERLGIGSPDVRSQLASFHHPQRVNTMGVTTGGVSFPFKLRGSKSNVDDPRLAAVAR
notes: inducible L-asparaginase ReAV (AnsA) of Rhizobium etli strain CFN 42; printed length 367 residues; CD spectra indicate incorrect folding or strong structural distortion; source: E. coli BL21 STAR (DE3), mostly in inclusion bodies, soluble part purified as the WT protein; not shown: His6, N-terminal, cleaved
B3: ReAV K263A mutant (enzyme, Rhizobium etli (strain CFN 42))
chain: MTPSEDFVVTDRGGIVENSHRVHAAVVDAKGRLLYALGNPTRMTLARSAAKPAQALAILETEGVAGYGFDDADIALMCASHSSEDRHIARTRAMLSKIKAEEADLRCGGHPSLSEMVNRSWIKQDFIPTAVCSNCSGKHVGMLAGARAIGAGTDGYHLPDHPMQGRVKRTVAELCDLDAGDVEWGTDGCNLPTPAFPLDRLGRIYAKLASAADGSDAGEGQSTRCAALAHIFRAMARHPEMVAGEGRYCTMLMRAFDGALVGALGADASYAIGVRASDATRQLGTDGALGISVKIEDGNLEMLYAVVTELLERLGIGSPDVRSQLASFHHPQRVNTMGVTTGGVSFPFKLRGSKSNVDDPRLAAVAR
notes: inducible L-asparaginase ReAV (AnsA) of Rhizobium etli strain CFN 42; printed length 367 residues; source: E. coli BL21 STAR (DE3), purified as the WT protein; not shown: His6, N-terminal, cleaved
B4: ReAV K51A mutant (enzyme, Rhizobium etli (strain CFN 42))
chain: MTPSEDFVVTDRGGIVENSHRVHAAVVDAKGRLLYALGNPTRMTLARSAAAPAQALAILETEGVAGYGFDDADIALMCASHSSEDRHIARTRAMLSKIKAEEADLRCGGHPSLSEMVNRSWIKQDFIPTAVCSNCSGKHVGMLAGARAIGAGTDGYHLPDHPMQGRVKRTVAELCDLDAGDVEWGTDGCNLPTPAFPLDRLGRIYAKLASAADGSDAGEGQSTRCAALAHIFRAMARHPEMVAGEGRYCTMLMRAFDGALVGKLGADASYAIGVRASDATRQLGTDGALGISVKIEDGNLEMLYAVVTELLERLGIGSPDVRSQLASFHHPQRVNTMGVTTGGVSFPFKLRGSKSNVDDPRLAAVAR
notes: as for B3
B5: ReAV S48A mutant (enzyme, Rhizobium etli (strain CFN 42))
chain: MTPSEDFVVTDRGGIVENSHRVHAAVVDAKGRLLYALGNPTRMTLARAAAKPAQALAILETEGVAGYGFDDADIALMCASHSSEDRHIARTRAMLSKIKAEEADLRCGGHPSLSEMVNRSWIKQDFIPTAVCSNCSGKHVGMLAGARAIGAGTDGYHLPDHPMQGRVKRTVAELCDLDAGDVEWGTDGCNLPTPAFPLDRLGRIYAKLASAADGSDAGEGQSTRCAALAHIFRAMARHPEMVAGEGRYCTMLMRAFDGALVGKLGADASYAIGVRASDATRQLGTDGALGISVKIEDGNLEMLYAVVTELLERLGIGSPDVRSQLASFHHPQRVNTMGVTTGGVSFPFKLRGSKSNVDDPRLAAVAR
notes: as for B2
B6: ReAV C135A mutant (enzyme, Rhizobium etli (strain CFN 42))
chain: MTPSEDFVVTDRGGIVENSHRVHAAVVDAKGRLLYALGNPTRMTLARSAAKPAQALAILETEGVAGYGFDDADIALMCASHSSEDRHIARTRAMLSKIKAEEADLRCGGHPSLSEMVNRSWIKQDFIPTAVCSNASGKHVGMLAGARAIGAGTDGYHLPDHPMQGRVKRTVAELCDLDAGDVEWGTDGCNLPTPAFPLDRLGRIYAKLASAADGSDAGEGQSTRCAALAHIFRAMARHPEMVAGEGRYCTMLMRAFDGALVGKLGADASYAIGVRASDATRQLGTDGALGISVKIEDGNLEMLYAVVTELLERLGIGSPDVRSQLASFHHPQRVNTMGVTTGGVSFPFKLRGSKSNVDDPRLAAVAR
notes: as for B3
B7: inducible Rhizobium etli L-asparaginase ReAV, wild type (enzyme, Rhizobium etli (strain CFN 42))
chain: MTPSEDFVVTDRGGIVENSHRVHAAVVDAKGRLLYALGNPTRMTLARSAAKPAQALAILETEGVAGYGFDDADIALMCASHSSEDRHIARTRAMLSKIKAEEADLRCGGHPSLSEMVNRSWIKQDFIPTAVCSNCSGKHVGMLAGARAIGAGTDGYHLPDHPMQGRVKRTVAELCDLDAGDVEWGTDGCNLPTPAFPLDRLGRIYAKLASAADGSDAGEGQSTRCAALAHIFRAMARHPEMVAGEGRYCTMLMRAFDGALVGKLGADASYAIGVRASDATRQLGTDGALGISVKIEDGNLEMLYAVVTELLERLGIGSPDVRSQLASFHHPQRVNTMGVTTGGVSFPFKLRGSKSNVDDPRLAAVAR
modifications: Cys249 most likely oxidized, modeled as S-hydroxycysteine in the crystal structures
notes: inducible L-asparaginase ReAV (AnsA) of Rhizobium etli strain CFN 42, encoded on plasmid p42e; printed length 367 residues; also called WT ReAV; AnsA; source: E. coli BL21 STAR (DE3), purified (HisTrap Ni, TEV cleavage, second HisTrap Ni, Superdex 200); not shown: His6, N-terminal, cleaved

Key:
[1] = substrate: NC(=O)C[C@H](N)C(=O)O; test: ITC, multiple injection mode, Michaelis-Menten fit; assay type: biochemical, Rhizobium etli; details: 30 mM phosphate pH 9.0, 37 °C, Zn-containing native enzyme, Hill coefficient 1.6 by separate Hill fit
[2] = target: the molecule itself; test: SEC; analytical Superdex75 10/300 GL column, 50 mM phosphate buffer pH 7.5 with 20 mM NaCl, room temperature
[3] = target: the molecule itself; test: crystal structure; WT ReAV in four crystal forms (OP, MP1, MP2, MC) plus the S-SAD START data set; one or two dimers in the asymmetric unit; crystals grown at 19 °C by hanging drop vapor diffusion

Protein	stoichiometry N [2]	further results
B1		Km [1]: 4.2 ± 0.3 mM; kcat [1]: 438 ± 32 s⁻¹
B2	2	
B3	2	
B4	2	
B5	2	
B6	2	
B7		stoichiometry N [3]: 2
